The target of this assay is HER4/p180erbB4 (human prototype HER4 polypeptide) (human). Put plainly: cell-based or functional assay.

For “recombinant rat neu differentiation factor (NDF) (from UniProt P43322 14-241) (ligand)”, the increase in tyrosine phosphorylation of HER4 after 15 minutes incubation was 2.4 to 4 fold.
